Measurements from PMC5412564 (The Journal of Cell Biology, 2017).

B1: 549-SNAP-VopL (domain or fragment)
chain: LSIKHGSSIPPAPPLPGAIPPAPPLNLSKGAPKSSSNSLDSVNEDHSKLMEQIRQGVKLKSATKSLSADKSSADAHSKLMEELLTGGRKLKKVATSDIPAPPPLPSASTSKSPDSRNALLSEIAGFSKDRLRKTGSLETLNSSQSKDKESFEPTTHERLLSEDLFKQSPKLSEQELDELANNLADYLFQAADIDWHQVISEKTRGLTTEEMAKSEHRYVQAFCREILKYPDCYKSADVASPESPKSGGGSVIDVALKRLQTGRERLFTTTDEKGNRELKKGDAILESAINAARMAISTEEKNTILSNNVKSATFEVFCELPCMDGFAEQNGKTAFYALRAGFYSAFKNTDTAKQDITKFMKDNLQAGFSGYSYQGLTNRVAQLEAQLAALSAKLS
modifications: SNAP-Surface 549 on the SNAP-tag (labeling efficiency ~75%)

Key:
[1] = molecular target: 549-SNAP-VopF (Vibrio cholera (so in the source)); test: photobleaching step counting of single molecules
[2] = molecular target: the molecule itself; test: photobleaching step counting of single molecules

Row | Molecule | stoichiometry N [1] | stoichiometry N [2]
1 | 549-SNAP-VopF (domain or fragment) | 2 | –
2 | B1 | – | 2
